Assay results published in the DeepSol protein solubility set.

Experiment: soluble on expression in E. coli; label from the status in PepcDB or PDB records

| Sequence | soluble on expression in E. coli |
| --- | --- |
| MLPDSSVRLNKYISESGICSRREADRYIEQGNVFLNGKRATIGDQVKPGDIVKVNGQLIEPREAEDLVLIALNKPVGIVSTTEDGERDNIVDFVNHSKRVFPIGRLDKDSQGLIFLTNHGDLVNKILRAGNDHEKEYLVTVDKPITDEFIRGMGAGVPILGTVTKKCKVKKEAPFVFRITLVQGLNRQIRRMCEHFGYEVKKLERTRIMNVSLSGIPLGEWRDLTDDELIDLFKLIENSSSEAKPKAKAKPKTAGIKRPVVKMEKTAEKGGRPASNGKRFTSPGRKKKGR | not soluble |
| MGGSHHHHHHGMASMTGGQQMGRTLYDDDDKDRWGSKIVVVGANHAGTACIKTMLTNYGDANEIVVFDQNSNISFLGSGMALWIGEQIAGPEGLFYSDKEELESLGAKVYMESPVQSIDYDAKTVTALVDGKNHVETYDKLIFATGSQPILPPIKGAEIKEGSLEFEATLENLQFVKLYQNSADVIAKLENKDIKRVAVVGAGYIGVELAEAFQRKGKEVVLIDVVDTCLAGYYDRDLTDLMAKNMEEHGIQLAFGETVKEVAGNGKVEKIITDKNEYDVDMVILAVGFRPNTTLGNGKIDLFRNGAFLVNKRQETSIPGVYAIGDCATIYDNATRDTNYIALASNAVRTGIVAAHNACGTDLEGIGVQGSNGISIYGLHMVSTGLTLEKAKRLGFDAAVTEYTDNQKPEFIEHGNFPVTIKIVYDKDSRRILGAQMAAREDVSMGIHMFSLAIQEGVTIEKLALTDIFFLPHFNKPYNYITMAALGAKD | soluble |
| MSEEKPLKVSYSKQFVRDLTDLAKRSPNVLIGSKYITAIHCLLNRLPLPENYQDHALVGEWKGYRDCHIQGDLVLIYQYVIQDEFDELKFSRLNIHSQTALK | not soluble |
| MLEDDFGREVSGVRVSLTDRCNFDCVYCHNEGLGDTRGPMEAQDDELTADTIVAFLEVAAEFGVDSVKFTGGEPMLREDLEEIVRRAPDEMEVSMTTNGTFLPGRAPDLVDAGLERVNVSQDALDSEAFAELTQSGAYDRVLEGVEAALDAGLEPVKLNMVVFEPTAGYVPKMVDHVAENPGLQLQLIEYMPELAGHPEWAIDIDRVHDWLEDRADKVEHREMHDRKRYWMHSGEAAVEGDSASTSLAASDGGIRTEPVNNHNSGMVEIVDPVGNENFCANCHRVRLTHDGYLKGCLNRNDDLRDIGTTKESMRAAFRETVDTRVPYYGEYMIETEDGEWEINEEYIDTDGDRAPYEYSE | not soluble |
| MDSIPLEKPHVVSLIGGFGYREPIFRKVLTTAMLDPGINYTLISGPSLDPSKLGGVPKNVRILNFVEDTYPYIKSSDAVIAPGGHSTIMEALSFGVPILSFPDEGHSEQESNAAVVEEEGYGRMLSYSTPPEVILECIREVIEDEAYRNKVERLQRLSGELEHHHHHH | soluble |
| PHSMEPQVTLNVTFKNEIQSFLVSDPENTTWADIEAMVKVSFDLNTIQIKYLDEENEEVSINSQGEYEEALKMAVKQGNQLQMQVHEGHHVVDEAPPPVVGAKRLAARAGKKPLAHYSSLVRVLGSDMKTPEDPAVQSFPLVPCDTDQPQDKPPDWFTSYLETFREQVVNETVEKLEQKLHEKLVLQNPSLGSCPSEVSMPTSEETLFLPENQFSWHIACNNCQRRIVGVRYQCSLCPSYNICEDCEAGPYGHDTNHVLLKLRRPVVGSSEPFCHSKYSTPRLPAALEQVRLQKQVDKNFLKAEKQRLRAEKKQRKAEVKELKKQLKLHRKIHLWNSIHGLQSPKSPLGRPESLLQSNTLMLPLQPCTSVMPMLSAAFVDENLPDGTHLQPGTKFIKHWRMKNTGNVKWSADTKLKFMWGNLTLASTEKKDVLVPCLKAGHVGVVSVEFIAPALEGTYTSHWRLSHKGQQFGPRVWCSIIVDPFPSEESPDNIEKGMISSSKTDDLTCQQEETFLLAKEERQLGEVTEQTEGTAACIPQKAKNVASERELYIPSVDLLTAQDLLSFELLDINIVQELERVPHNTPVDVTPCMSPLPHDSPLIEKPGLGQIEEENEGAGFKALPDSMVSVKRKAENIASVEEAEEDLSGTQFVCETVIRSLTLDAAPDHNPPCRQKSLQMTFALPEGPLGNEKEEIIHIAEEEAVMEEEEDEEDEEEEDELKDEVQSQSSASSEDYIIILPECFDTSRPLGDSMYSSALSQPGLERGAEGKPGVEAGQEPAEAGERLPGGENQPQEHSISDILTTSQTLETVPLIPEVVELPPSLPRSSPCVHHHGSPGVDLPVTIPEVSSVPDQIRGEPRGSSGLVNSRQKSYDHSRHHHGSSIAGGLVKGALSVAASAYKALFAGPPVTAQPIISEDQTAALMAHLFEMGFCDRQLNLRLLKKHNYNILQVVTELLQLNNNDWYSQRY | soluble |
| MEVSKIRIHDLPEEERPRERLIKNGPESLSNAELLGIVLRTGSREENVISLCSRILMEYNIKQLSLANVSKLMQVNGIGKAKAAQIAAVFELARRLETFVEEPKRKISSPKDVYTLMYPKMREQKKEKFITLYLDTKNQILKEEVVSIGSLNASIVHPREVFKSALMESSASVIMVHNHPSGDPSPSREDIMVTEKLVEGGKLLGIDILDHIIIGDGRYVSLKDEGFVK | not soluble |
| MGSDKIHHHHHHNGPIVKGSKNYITKKENLEHFNDISMSGSANIIYQQDSSSRIEIYGSDNIVELLETKVNGKTLNIKFKKNVNIIDKGKLEIKVFSPDLNGLTLNGSGGILFANGIHTEGDLKVTINGSGNLGGSTFDTGHLAISIHGSGDVRLKQIDSKTCSASISGSGNITLDGMTGAAKYNISGSGNIKAADLEATDVYAGISGSGNISCFVNGKLGGHVSGSGNVAYKGNPQAIDFPHKKLRKLD | not soluble |
| MGSDKIHHHHHHMTALDDKTIVRDYFNATGFDRWSRIYGDGEVNFVQKNIRIGHQRTVDTVLSWLEADGNLSDRSFCDAGCGVGSLSLPLAQRGAQAVYASDISAKMVEEARERASQIPNLNNIQLEVSDLASLSGRYDTVICLDVLIHYPESDAAAMLSHLCSLAEQRVLVSFAPKSPVLNVLKRIGQFFPGASKTTRAYQHSETAIAAALAANGFQVQRRAFNKAPFYFSLLLEAVRTA | not soluble |
| MILAIDLGTSGAKAAIIDSAGAVHEQTFVPYSTTKLPNGGVEQDPMQWVSAARQAVTRLPRSYSVVSFTGQMQDLICLDRAGRPLGQALLYNDARAAAEAARLNTVVPEWKDITGNRQTATSTAAMWLRLMEQSD | not soluble |
| SNSLHWPTSLPSGDAFSSVGTHRFVQKVEEMVQNHMTYSLQDVGGDANWQLVVEEGEMKVYRREVEENGIVLDPLKATHAVKGVTGHEVCNYFWNVDVRNDWETTIENFHVVETLADNAIIIYQTHKRVWPASQRDVLYLSVIRKIPALTENDPETWIVCAFSVDHDSAPLNNRCVRAKINVAMICQTLVSPPEGNQEISRDNILCKITYVANVNPGGWAPASVLRAVAKREYPKFLKRFTSYVQEKTAGKPILF | soluble |
| MATIDLQKKSVKIVLEKKQLTKVTARVGLVLDITGSMRPLYKNGTVQNVVERILAVADQFDDNGLLDVWVYDNEFPRLKPVSEKDFPGYVDREILNNDRLHKFGRNDEPPVMKDVLRNMLRRNRARILLSLFLSMTGAVKSQSNRLIEASSDKPVFWQFVGIGNGNFDFLNKLDTLEGRVIDNTNFLHIEEIDRISDDELYDALLAEFPFWLKEAKEKGIVREQEPPAEKPKKKGFFSRLFSKLEHHHHHH | soluble |
| MAHHHHHHMGTLEAQTQGPGSMSVRVAINGFGRIGRNILRAIIESGRQDIEVVALNDLGSVETNAHLLRYDSVHGCFPGTVQVVGDAIDIGSSLIKVFAERDPAQLPWKALDIDIALECTGIFTARDKASAHLDAGAKRVLVSAPSEGADLTVVYGVNHQFLSKEHHVISNASCTTNCLAPVAQVLHNTVGIEKGFMTTIHSYTGDQPVLDTMHRDLYRARAAALSMIPTSTGAAKAVGLVLPELKGLLDGVSIRVPTPNVSVVDLTFTAKRSTTIEEINTAIRTAAQGSLKGILDYTDEKLVSCDFNHNPHSAIFHNDQTKVIDGQLCRVLVWYDNEWGFSNRMCDTAVAFAKTI | soluble |
| MGHHHHHHGGHMSLSDDNSHSSDTISNKKGFFSLLLSQLFHGEPKNRDELLALIRDSGQNDLIDEDTRDMLEGVMDIADQRVRDIMIPRSQMITLKRNQTLDECLDVIIESAHSRFPVISEDKDHIEGILMAKDLLPFMRSDAEAFSMDKVLRQAVVVPESKRVDRMLKEFRSQRYHMAIVIDEFGGVSGLVTIEDILELIVGEIEDEYDEEDDIDFRQLSRHTWTVRALASIEDFNEAFGTHFSDEEVDTIGGLVMQAFGHLPARGETIDIDGYQFKVAMADSRRIIQVHVKIPDDSPQPKLDEEGGS | soluble |
| MGSDKIHHHHHHVLNFDYDLQSVQETRNLARQAKQAQTELAQFNSEQIDKIIRNMVKVAEENAVALAKLAVEETGFGKVEDKVFKNRFASTELYQFIKPMQTIGVIKEDKINKVMEIAEPVGLLMGIVPSTNPTSTTIYKSLIAIKARNGIVFSPHPSALKCTLEAAKLMNDAAVAAGAPANIIGCISKPSMNATNELMKCDEVAMIIATGGSAMVKAAYSAGKPALGVGPGNVPAYIERTADIPKAVRNIIASKTFDNGTICASEQSVVVEECIRNQVMEEFKRQGGYFMTPEETEQVGRKLFNRGHAMNAKMVGRSAADIAAGAGISIPPGTKVLLGEQQGVGEQYPLSYEKLTTVLAFYTVKDWHEACDLCMKLLNNGGVGHSLSIHTENPEMAIKFAEKPVFRILVNTASTHGGVGVSTGLAPAFTLGCGTWGGSATSDNVTPMHLINIKRVAYGIKDVTENGNSSYATGDAQQGGSGGTVSEDRIQALVNEVMSLLKQRGDC | not soluble |
| GPGSMKRHGVRLRRSIKETAVTIGCDEAGRGPLAGPVVGAAVSRIPVSSFNNEFDQLYEAPEQFQIFDSKSVSERQRDLVFAMITGHVDFFDIASCKKFVVHHCAGDEATSLTLSSKKLDSHVKLSKLPFKKLLSMQTPYLITYHGYNSAGNYVYFWSIGIANHTYIDEYNIYNASMNTMHRSAQSIWHMLSDARFSHEAAPRPRSSSIAQYLFSRFCTAANHDNEKRYQVPHHLELLKGATEYFDFEPIQPPLVLIDGHAVPGPSYDYFTSVRIGGDVQPIIEGDKRSLSIAAASCLAKVTRDELMNYIDALYPGYGFRDNKGYPVEQHMKYVAKNGLCPIHRKTYRPCRTVLEKGLQRK | not soluble |
| MSLGNVGHLITPAIPLDYGELLAAPVTSSESMAQLRGRWIVLSVADGPCAEVCRQNLYKTRQMRLMLNKEIPRVRRLLLLTDPGAADALADWLRQDEFLAVAGLAPTLREKLEKAVGGPLQPGQILLLDPLGNLMMYYDADFDPYGVLKDLKHLLRASQIGEGHHHHHH | soluble |
| MGSDKIHHHHHHMKKILFLFLAACFFFSCEKETIVIPQQHAGRTVLAFFWADNSLNSSLRDNIQTMMQGLQAMKDSAALLVYWDGEASDISWPEPCIVEYVTNGQGGINSLSKGTIDAMMADKNTSIYDLIGIGNIRKKYPPQTSTEKTVMQTVIGDMMSAYPSESYGIIFGSHGSGWLPTITGTRSIGQDGGRYSSDTALIPELAEVLRTVNPQKFDFVLFDACMMGCAEVYYELKDAARYCIASVLDIPAAGFPYASVMPYLYENAIKDYLEPICKDYIDYYNYIGWGTISAVDCNQMEGLAEAVRSVILSNQDSLKNVDTADLQQYGKGSSSFKGYAYDMLQFIGKLCGGMAPDDFTQQLKKTVIYTDYTHDPTSSLYRIDGDNYSGMGMYIPNSFTTPKYLLWNNYFKSSIAWYHASGWAETESIWGN | not soluble |
| MGSDKIHHHHHHMTLDLKQEKGREIFFRLAEKADVIIENFVPGVVKKLGVDYEAVKKVKPDIIYCHVSGFGQDGPYRDRPAFDQLIQGEAGIISYTGTRETPCKINVPITDLLASMYGAYAVLAALLRREKTGEGMEIDISLFDCAVTMMLNLMNMAIVEGMKDEELRMGTKYFLATPYEPYPAGDGKLVNVVVATEWHWKEFCKAVGLEELLDDPRFATNQQRLKHREQLERIIIEKFREKPRDDWIEILLKAGVPCGAVNTIQEVIEHPQTKHRKTVVEVDYPELGKIKLFNNPVKFSGFEVEVRRPPKLGEHTEEILKSIGLSEEEIADLRA | not soluble |
